{"source": "patent US6288042", "target": "HIV-1 integrase wild-type (IN1-288) (Human immunodeficiency virus 1) (UniProt P04585)", "assay": "inhibition", "details": "I = deoxyinosine; PS at first and last linkage; 3'-processing column as printed; strand transfer column 0.070"}
{"sequence": "IGGIIGGIIGGIIGGI [T30721]", "values": [{"measurement": "IC50", "value": 88, "unit": "nM"}]}
